Key:
[1] = target: Human serum albumin (HSA) (human) (UniProt P02768); assay: bridging ELISA (HSA on plate, biotin-HSA in solution), antibody spiked in normal human serum, after Protein A/G enrichment and acid elution
[2] = target: Human serum albumin (HSA) (human) (UniProt P02768); assay: competitive indirect ELISA, antibody in 1% pooled normal human serum preincubated with HRP-conjugated HSA, then Protein A/G plate
[3] = target: Human serum albumin (HSA) (human) (UniProt P02768); assay: bridging ELISA after sample preparation, plate coated with 20 µg/mL HSA, antibody in neat human serum
[4] = target: Human serum albumin (HSA) (human) (UniProt P02768); assay: competitive indirect ELISA, antibody in neat human serum, mixed with HRP-conjugated HSA, then Protein A/G plate
[5] = target: Human serum albumin (HSA) (human) (UniProt P02768); assay: competitive indirect ELISA, antibody in buffer captured on Protein A/G plate, HRP-conjugated HSA detection

Substance: Rabbit anti-HSA antibody, ABCAM ab31657
- detection limit [1]: 125 ng/mL
- detection limit [2]: 3 µg/mL
- limit of detection [3]: 250 ng/mL
- assay sensitivity [4]: 10 µg/mL
- lowest antibody concentration detected [5]: 0.48 ng/mL
